From article PMC1802081 (BMC Structural Biology, 2007)
Numbering of substitutions follows the chain as printed.

B1: ActR-IIBECD wildtype (activin type IIB receptor ectodomain) (receptor, UniProt P27040 19-137, looked up)
chain: SGRGEAETRECIYYNANWELERTNQSGLERCEGEQDKRLHCYASWRNSSGTIELVKKGCWLDDFNCYDRQECVATEENPQVYFCCCEGNFCNERFTHLPEPGGPEVTYEPPPTAPTLLT
notes: source: E. coli OrigamiB (DE3), purified (Ni2+-IMAC, thrombin cleavage, anion exchange, RP-HPLC)
B2: activin A (Sf9 cells) (ligand, UniProt P08476 311-426, looked up)
chain: GLECDGKVNICCKKQFFVSFKDIGWNDWIIAPSGYHANYCEGECPSHIAGTSGSSLSFHSTVINHYRMRGHSPFANLKSCCVPTKLRPMSMLYYDDGQNIIKKDIQNMIVEECGCS
modifications: biotin (biotinylated for the biosensor; site not stated)
notes: activin A (dimer of inhibin beta A chains), mature ligand; also called Act-A; source: Sf9 cells [59]

Experiments:
Details in all cases: both partners purified
[1] = molecular target: T1, BMP-7 (CHO cells, R&D Systems) (UniProt P18075 293-431, biotin (biotinylated for the biosensor; site not stated)); test: SPR; BIACORE 2000; biotinylated ligand on a streptavidin-modified CM5 chip (about 200 RU); receptor ectodomain as analyte at 1, 2, 3, 5, 10, 20 and 50 uM; HBS500 (10 mM HEPES pH 7.4, 500 mM NaCl, 3.4 mM EDTA, 0.005% P20); apparent KD from the dose dependence of equilibrium binding
T1 construct: bone morphogenetic protein 7 (BMP-7), mature ligand; source: bought: R&D Systems (CHO cells)
T1 sequence (looked up): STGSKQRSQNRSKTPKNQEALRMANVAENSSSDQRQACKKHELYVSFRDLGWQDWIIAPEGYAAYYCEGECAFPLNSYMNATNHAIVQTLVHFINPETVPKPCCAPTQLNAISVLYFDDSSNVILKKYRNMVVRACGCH

[2] = molecular target: T1, BMP-7 (CHO cells, R&D Systems); test: as above; remark: listed apart in the source
[3] = molecular target: T2, binary complex BMP-2:BMPR-IAECD (UniProt P12643 283-396; P36894 24-152); test: ITC; isothermal titration calorimetry, 25°C; who was titrated is not told
T2 construct: bone morphogenetic protein 2 (BMP-2), mature ligand, as m1; BMP type IA receptor (BMPR-IA), extracellular domain, as m25; also called BMP-2 complexed with BMPR-IAECD; BMP-2:(BMPR-IAECD)2; source: formed from the purified proteins and purified as described [58]; copies: 2 + 2

[4] = molecular target: B1; test: SPR; BIACORE 2000; biotinylated ligand on a streptavidin-modified CM5 chip (about 200 RU); receptor ectodomain as analyte at 1, 2, 3, 5, 10, 20 and 50 uM; HBS500 (10 mM HEPES pH 7.4, 500 mM NaCl, 3.4 mM EDTA, 0.005% P20); apparent KD from the dose dependence of equilibrium binding
ActR-IIBECD L61A = molecular target: T3, ActR-IIBECD L61A (UniProt P27040 19-137, L61A); test: as above
T3 construct: also called ActR-IIBL61A; source: E. coli OrigamiB (DE3), purified (Ni2+-IMAC, thrombin cleavage, anion exchange, RP-HPLC)
T3 sequence (looked up): B1 chain with L61A

ActR-IIBECD L61P = molecular target: T4, ActR-IIBECD L61P (UniProt P27040 19-137, L61P); test: as above
T4 construct: also called ActR-IIBL61P; source: E. coli OrigamiB (DE3), purified (Ni2+-IMAC, thrombin cleavage, anion exchange, RP-HPLC)
T4 sequence (looked up): B1 chain with L61P

[5] = molecular target: T5, ActR-II receptor ectodomain (UniProt P27037 20-135); test: as above
T5 construct: activin receptor type II (ActR-II), extracellular domain; also called ActR-IIECD; source: expressed and purified as described earlier [28]

[6] = molecular target: B1; test: as above; remark: listed apart in the source
[7] = molecular target: T6, BMPR-II receptor ectodomain (UniProt Q13873 27-150); test: as above
T6 construct: BMP type II receptor (BMPR-II), extracellular domain; also called BMPR-IIECD; source: expressed and purified as described earlier [28]
T6 sequence (looked up): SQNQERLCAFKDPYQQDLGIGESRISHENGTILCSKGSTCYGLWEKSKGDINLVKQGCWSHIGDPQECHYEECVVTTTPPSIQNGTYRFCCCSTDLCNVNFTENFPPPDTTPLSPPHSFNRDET

[8] = molecular target: T5, ActR-II receptor ectodomain; test: as above; remark: listed apart in the source

Kd [1] [nM] | Kd [2] [nM] | dH [3] [kcal/mol] | Kd [4] [nM] | Kd (ActR-IIBECD L61A) [nM] | Kd (ActR-IIBECD L61P) [nM] | Kd [5] [nM] | Kd [6] [nM] | Kd [7] [nM] | Kd [8] [nM] | Binder
3600 | 2800 | 14 |  |  |  |  |  |  |  | B1
 |  |  | 65 | 2000 | 180000 | 230 | 60 | 8700 | ~250 | B2
